# From PMC7765622, “The Cardioprotective PKA-Mediated Hsp20 Phosphorylation Modulates Protein Associations Regulating Cytoskeletal Dynamics” (International Journal of Molecular Sciences, 2020)
# Changes are numbered by the printed parent chain. Numbers in names are those of the source.
# T1: GST-CFL2 (amino acids 1-55) (Homo sapiens (Human), UniProt Q9Y281)
# T1 chain: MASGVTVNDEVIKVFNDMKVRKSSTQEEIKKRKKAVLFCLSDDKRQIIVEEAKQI
# T2: GST-CFL2 (amino acids 1-166), non-phosphorylated (Homo sapiens (Human), UniProt Q9Y281)
# T2 chain: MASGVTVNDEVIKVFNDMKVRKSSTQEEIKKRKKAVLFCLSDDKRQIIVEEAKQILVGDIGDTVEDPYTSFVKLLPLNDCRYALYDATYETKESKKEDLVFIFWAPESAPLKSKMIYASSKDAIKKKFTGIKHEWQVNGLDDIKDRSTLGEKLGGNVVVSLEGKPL
# T3: MBP-14-3-3 (amino acids 1-247), full length 14-3-3 gamma (human, UniProt P61981 1-247)
# T3 construct: 14-3-3 gamma, human, amino acids 1-247, cloned by RT-PCR on human muscle cDNA into pMALc2x; also called in vitro expressed 14-3-3; source: recombinant, expression as previously described [58]
# T3 sequence (looked up): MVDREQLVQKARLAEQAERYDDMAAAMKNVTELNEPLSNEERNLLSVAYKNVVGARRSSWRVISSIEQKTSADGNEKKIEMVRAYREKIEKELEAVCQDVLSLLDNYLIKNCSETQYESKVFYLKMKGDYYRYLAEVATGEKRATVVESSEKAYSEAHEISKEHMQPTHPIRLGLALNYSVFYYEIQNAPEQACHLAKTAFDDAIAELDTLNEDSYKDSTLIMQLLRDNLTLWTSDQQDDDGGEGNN
# B1: MBP-14-3-3 (amino acids 1-247), full length 14-3-3 gamma (protein)
# chain: T3 sequence (looked up)
# B2: GST-Hsp20 (amino acids 1-160), wild type, phosphorylated in vitro by PKA at Ser16 (natural protein, human, UniProt O14558 1-160, looked up)
# chain: MEIPVPVQPSWLRRASAPLPGLSAPGRLFDQRFGEGLLEAELAALCPTTLAPYYLRAPSVALPVAQVPTDPGHFSVLLDVKHFSPEEIAVKVVGEHVEVHARHEERPDEHGFVAREFHRRYRLPPGVDPAAVTSALSPEGVLSIQAAPASAQAPPPAAAK
# modifications: phosphoserine at 16 (PKA in vitro)
# notes: Hsp20 (HspB6), amino acids 1-160, wild type; construct previously reported [16,53,57]; Same construct as m7, after PKA treatment; also called phosphorylated GST-Hsp20; GST-p-Hsp20; source: recombinant, purified on Glutathione Sepharose 4B; phosphorylated in vitro with PKA catalytic subunit (New England Biolabs), 30 °C, 1 h
# B3: GST-Hsp20-S16D (natural protein, human, UniProt O14558 1-160, looked up)
# chain: B2 chain with S16D
# notes: Hsp20 (HspB6), amino acids 1-160, made by PCR mutagenesis on the WT Hsp20 GST-tagged plasmid; Phosphomimetic at Ser16; also called GST-p-Hsp20-S16D (after PKA treatment); source: recombinant, purified (Glutathione Sepharose 4B), eluted; used untreated or PKA-treated
# B4: MBP-14-3-3 (amino acids 1-120) (protein)
# chain: MVDREQLVQKARLAEQAERYDDMAAAMKNVTELNEPLSNEERNLLSVAYKNVVGARRSSWRVISSIEQKTSADGNEKKIEMVRAYREKIEKELEAVCQDVLSLLDNYLIKNCSETQYESK
# B5: MBP-14-3-3 (amino acids 115-247) (domain or fragment, human, UniProt P61981 115-247, looked up)
# chain: TQYESKVFYLKMKGDYYRYLAEVATGEKRATVVESSEKAYSEAHEISKEHMQPTHPIRLGLALNYSVFYYEIQNAPEQACHLAKTAFDDAIAELDTLNEDSYKDSTLIMQLLRDNLTLWTSDQQDDDGGEGNN
# notes: 14-3-3 gamma, human, amino acids 115-247, in pMALc2x; also called MBP-14-3-3 C-terminal deletion construct; C-terminal fragment of 14-3-3; source: recombinant, expression as previously described [58]
# Tests used:
# [1] = target: T1, GST-CFL2 (amino acids 1-55); assay: blot overlay
# [2] = target: T2, GST-CFL2 (amino acids 1-166), …; assay: blot overlay
# [3] = target: T3, MBP-14-3-3 (amino acids 1-247), full …; assay: pull-down; same samples as a4: eluted GST-Hsp20 proteins (PKA-treated or not) bound to MBP-14-3-3 on amylose resin, in the presence of myc-CFL2 HEK 293 lysate; blot with phospho-Hsp20 or GST antibody; conditions: both partners purified
# [4] = target: B2; assay: far-Western, overlay or dot blot; purified GST fusion proteins separated by SDS-PAGE and transferred to nitrocellulose; membranes incubated with MBP-14-3-3 fusion protein (or MBP as control); detection with anti-MBP; conditions: both partners purified
Binder,binding result [2],binding result [3],other results
B1,binds,–,binding result [1]: binds
B2,–,binds,–
B3,–,binds,–
B4,binds,–,–
B5,–,–,binding result [4]: binds
